Data reported in the supplement of paper PMC9112550, “Optimization of the antimicrobial peptide Bac7 by deep mutational scanning” (BMC Biology, 2022).

System: Escherichia coli TOP10
Experiment: shrunken log2 fold change of peptide-encoding DNA abundance (4.5 h post-induction vs induction); higher = less antimicrobial activity (less host growth inhibition)
Settings: time post-induction: 4.5 h; library: site-saturation at positions 5, 18, 19, 20
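Also: peptides expressed intracellularly from a pBAD plasmid library in pooled LB shake-flask culture, induced with 0.3% L-arabinose, DNA abundance read by NGS, three biological replicates, DESeq2 with apeglm shrinkage.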

| Sequence | shrunken log2 fold change |
| --- | --- |
| RRIRRRPPRLPRPRPRPKQWPRP | 0.294 |
| RRIRWRPPRLPRPRPRPAQWPRP | 0.287 |
| RRIRDRPPRLPRPRPRPQSWPRP | -0.0644 |
| RRIRWRPPRLPRPRPRPRKAPRP | 0.285 |
| RRIRHRPPRLPRPRPRPRRQPRP | 0.0256 |
| RRIRQRPPRLPRPRPRPSWIPRP | -0.225 |
| RRIRLRPPRLPRPRPRPREPPRP | 0.139 |
| RRIRERPPRLPRPRPRPRHRPRP | -0.114 |
| RRIRWRPPRLPRPRPRPKNNPRP | -0.136 |
| RRIRSRPPRLPRPRPRPELRPRP | 0.382 |
| RRIRLRPPRLPRPRPRPICEPRP | 0.0628 |
| RRIRERPPRLPRPRPRPNVVPRP | 0.0366 |
| RRIRERPPRLPRPRPRPQTFPRP | -0.0695 |
| RRIRRRPPRLPRPRPRPDRSPRP | -0.0169 |
| RRIRARPPRLPRPRPRPMTVPRP | -0.0938 |
| RRIRCRPPRLPRPRPRPIRNPRP | -0.182 |
| RRIRIRPPRLPRPRPRPHDEPRP | -0.463 |
| RRIRSRPPRLPRPRPRPTVCPRP | 0.0523 |
| RRIRCRPPRLPRPRPRPPGAPRP | 0.678 |
| RRIRCRPPRLPRPRPRPIAKPRP | 0.0637 |
| RRIRMRPPRLPRPRPRPNQGPRP | -0.0312 |
| RRIRSRPPRLPRPRPRPTQQPRP | 0.138 |
| RRIRHRPPRLPRPRPRPCNEPRP | -0.00194 |
| RRIRVRPPRLPRPRPRPERVPRP | -0.107 |
| RRIRNRPPRLPRPRPRPASGPRP | 0.247 |

| Sequence | shrunken log2 fold change |
| --- | --- |
| RRIRRRPPRLPRPRPRPNQRPRP | 0.269 |
| RRIRKRPPRLPRPRPRPRVDPRP | 0.0968 |
| RRIRTRPPRLPRPRPRPPGYPRP | 0.0573 |
| RRIRGRPPRLPRPRPRPNGEPRP | 1.81 |
| RRIRFRPPRLPRPRPRPSIEPRP | -0.342 |
| RRIRKRPPRLPRPRPRPQVIPRP | 0.108 |
| RRIRDRPPRLPRPRPRPMFTPRP | -0.174 |
| RRIRARPPRLPRPRPRPSWCPRP | -0.207 |
| RRIRGRPPRLPRPRPRPVCYPRP | 0.833 |
| RRIRARPPRLPRPRPRPYTLPRP | -0.213 |
| RRIRCRPPRLPRPRPRPMTQPRP | -0.188 |
| RRIRTRPPRLPRPRPRPIDFPRP | 0.0107 |
| RRIRCRPPRLPRPRPRPFIMPRP | -0.765 |
| RRIRMRPPRLPRPRPRPTANPRP | 0.921 |
| RRIRERPPRLPRPRPRPVQRPRP | 0.0476 |
| RRIRLRPPRLPRPRPRPNFYPRP | -0.141 |
| RRIRHRPPRLPRPRPRPLDWPRP | 0.393 |
| RRIRVRPPRLPRPRPRPSEYPRP | -0.418 |
| RRIRFRPPRLPRPRPRPVCRPRP | -0.0676 |
| RRIRRRPPRLPRPRPRPRGKPRP | 0.694 |
| RRIRIRPPRLPRPRPRPCVSPRP | -0.012 |
| RRIRQRPPRLPRPRPRPQKWPRP | 0.0876 |
| RRIRDRPPRLPRPRPRPAGNPRP | 0.0407 |
| RRIRERPPRLPRPRPRPGYWPRP | -0.0572 |
| RRIRLRPPRLPRPRPRPHLNPRP | 0.141 |

| Sequence | shrunken log2 fold change |
| --- | --- |
| RRIRHRPPRLPRPRPRPSIHPRP | -0.924 |
| RRIRARPPRLPRPRPRPFFNPRP | -0.0671 |
| RRIRMRPPRLPRPRPRPTLWPRP | 0.968 |
| RRIRLRPPRLPRPRPRPRWFPRP | 0.602 |
| RRIRHRPPRLPRPRPRPWLEPRP | -0.0848 |
| RRIRYRPPRLPRPRPRPWMHPRP | -0.519 |
| RRIRARPPRLPRPRPRPFPDPRP | 0.262 |
| RRIRGRPPRLPRPRPRPHAYPRP | 2.11 |
| RRIRYRPPRLPRPRPRPEGCPRP | 0.204 |
| RRIRCRPPRLPRPRPRPSPRPRP | 0.485 |
| RRIRKRPPRLPRPRPRPDLHPRP | -0.0392 |
| RRIRWRPPRLPRPRPRPQFIPRP | -0.211 |
| RRIRYRPPRLPRPRPRPSHMPRP | -0.0573 |
| RRIRERPPRLPRPRPRPSQQPRP | 0.0678 |
| RRIRYRPPRLPRPRPRPIVWPRP | 0.0267 |
| RRIRIRPPRLPRPRPRPKSDPRP | -0.222 |
| RRIRLRPPRLPRPRPRPMKMPRP | -0.409 |
| RRIRMRPPRLPRPRPRPHDSPRP | -0.0393 |
| RRIRIRPPRLPRPRPRPRTRPRP | 0.0709 |
| RRIRKRPPRLPRPRPRPQETPRP | -0.0167 |
| RRIRYRPPRLPRPRPRPWVWPRP | -0.111 |
| RRIRMRPPRLPRPRPRPATEPRP | 0.996 |
| RRIRGRPPRLPRPRPRPMDAPRP | 0.322 |
| RRIRARPPRLPRPRPRPGGMPRP | 0.337 |
| RRIRPRPPRLPRPRPRPVVNPRP | -0.229 |

| Sequence | shrunken log2 fold change |
| --- | --- |
| RRIRCRPPRLPRPRPRPFHAPRP | -0.44 |
| RRIRKRPPRLPRPRPRPFSNPRP | -0.411 |
| RRIRFRPPRLPRPRPRPVDPPRP | -0.228 |
| RRIRWRPPRLPRPRPRPGANPRP | 0.0566 |
| RRIRTRPPRLPRPRPRPQWYPRP | -0.524 |
| RRIRNRPPRLPRPRPRPHLPPRP | 0.0211 |
| RRIRPRPPRLPRPRPRPWDMPRP | -0.0229 |
| RRIRGRPPRLPRPRPRPHDKPRP | 0.475 |
| RRIRLRPPRLPRPRPRPNITPRP | -0.327 |
| RRIRNRPPRLPRPRPRPTNVPRP | 0.0366 |
| RRIRERPPRLPRPRPRPDMGPRP | -0.265 |
| RRIRDRPPRLPRPRPRPAEAPRP | 0.314 |
| RRIRLRPPRLPRPRPRPSLEPRP | -0.209 |
| RRIRFRPPRLPRPRPRPWMEPRP | -0.706 |
| RRIRERPPRLPRPRPRPMHCPRP | -0.0195 |
| RRIRMRPPRLPRPRPRPPQRPRP | 1.09 |
| RRIRIRPPRLPRPRPRPDHLPRP | -0.846 |
| RRIRYRPPRLPRPRPRPGSQPRP | 0.0113 |
| RRIRARPPRLPRPRPRPCYVPRP | -0.279 |
| RRIRRRPPRLPRPRPRPPYQPRP | 0.245 |
| RRIRMRPPRLPRPRPRPRDVPRP | 0.372 |
| RRIRVRPPRLPRPRPRPPPSPRP | 0.897 |
| RRIRYRPPRLPRPRPRPETFPRP | -0.0918 |
| RRIRPRPPRLPRPRPRPSVRPRP | 0.129 |
| RRIRIRPPRLPRPRPRPCTSPRP | -0.438 |

| Sequence | shrunken log2 fold change |
| --- | --- |
| RRIRRRPPRLPRPRPRPAGHPRP | 0.187 |
| RRIRDRPPRLPRPRPRPAEHPRP | -0.0618 |
| RRIRKRPPRLPRPRPRPEGKPRP | 0.201 |
| RRIRARPPRLPRPRPRPMGMPRP | 0.211 |
| RRIRYRPPRLPRPRPRPRSHPRP | -0.267 |
| RRIRHRPPRLPRPRPRPTAKPRP | 0.0616 |
| RRIRLRPPRLPRPRPRPNMEPRP | 0.116 |
| RRIRERPPRLPRPRPRPARVPRP | -0.505 |
| RRIRGRPPRLPRPRPRPMDGPRP | -0.0481 |
| RRIRGRPPRLPRPRPRPDLVPRP | 0.529 |
| RRIRHRPPRLPRPRPRPHFMPRP | 0.00955 |
| RRIRNRPPRLPRPRPRPFVEPRP | -0.12 |
| RRIRVRPPRLPRPRPRPRMGPRP | 1.86 |
| RRIRMRPPRLPRPRPRPNHKPRP | -0.391 |
| RRIRNRPPRLPRPRPRPCWDPRP | 0.125 |
| RRIRARPPRLPRPRPRPIIQPRP | -0.206 |
| RRIRMRPPRLPRPRPRPAWDPRP | 0.869 |
| RRIRWRPPRLPRPRPRPEWWPRP | -0.0316 |
| RRIRWRPPRLPRPRPRPDCPPRP | 0.0548 |
| RRIRERPPRLPRPRPRPRGDPRP | 0.0639 |
| RRIRLRPPRLPRPRPRPKVPPRP | 0.0509 |
| RRIRLRPPRLPRPRPRPYNRPRP | -0.113 |
| RRIRMRPPRLPRPRPRPCPAPRP | 0.574 |
| RRIRKRPPRLPRPRPRPIHFPRP | -0.241 |
| RRIRKRPPRLPRPRPRPQMPPRP | 0.0482 |

| Sequence | shrunken log2 fold change |
| --- | --- |
| RRIRMRPPRLPRPRPRPHIGPRP | -0.00118 |
| RRIRKRPPRLPRPRPRPMIGPRP | 0.0437 |
| RRIRARPPRLPRPRPRPSMMPRP | 0.162 |
| RRIRQRPPRLPRPRPRPGRTPRP | -0.433 |
| RRIRGRPPRLPRPRPRPTNDPRP | 0.564 |
| RRIRFRPPRLPRPRPRPTKYPRP | -0.635 |
| RRIRYRPPRLPRPRPRPRTKPRP | 0.011 |
| RRIRFRPPRLPRPRPRPYSIPRP | -0.186 |
| RRIRTRPPRLPRPRPRPQTMPRP | -0.151 |
| RRIRWRPPRLPRPRPRPKLGPRP | 0.0872 |
| RRIRNRPPRLPRPRPRPSLLPRP | -0.19 |
| RRIRDRPPRLPRPRPRPEDEPRP | 1.76 |
| RRIRRRPPRLPRPRPRPFEEPRP | 0.251 |
| RRIRRRPPRLPRPRPRPKLYPRP | 0.174 |
| RRIRVRPPRLPRPRPRPCEYPRP | -0.00327 |
| RRIRSRPPRLPRPRPRPRWNPRP | 0.0205 |
| RRIRIRPPRLPRPRPRPWAFPRP | -0.0187 |
| RRIRVRPPRLPRPRPRPGWNPRP | -0.0405 |
| RRIRARPPRLPRPRPRPFWHPRP | 0.165 |
| RRIRGRPPRLPRPRPRPAWFPRP | 0.652 |
| RRIRRRPPRLPRPRPRPLSFPRP | -0.0589 |
| RRIRSRPPRLPRPRPRPRMRPRP | 0.91 |
| RRIRYRPPRLPRPRPRPECFPRP | -0.288 |
| RRIRGRPPRLPRPRPRPEFFPRP | 0.891 |
| RRIRRRPPRLPRPRPRPCTGPRP | 0.0659 |
